Residue numbers refer to the chain shown, from its start.
How the values were obtained:
[1] = molecular target: T1, human CD200R1 on cells (HH, Jurkat-CD200R1, U937-CD200R1) (human) (UniProt Q8TD46); experiment: flow cytometry, HH cells
T1 sequence (looked up): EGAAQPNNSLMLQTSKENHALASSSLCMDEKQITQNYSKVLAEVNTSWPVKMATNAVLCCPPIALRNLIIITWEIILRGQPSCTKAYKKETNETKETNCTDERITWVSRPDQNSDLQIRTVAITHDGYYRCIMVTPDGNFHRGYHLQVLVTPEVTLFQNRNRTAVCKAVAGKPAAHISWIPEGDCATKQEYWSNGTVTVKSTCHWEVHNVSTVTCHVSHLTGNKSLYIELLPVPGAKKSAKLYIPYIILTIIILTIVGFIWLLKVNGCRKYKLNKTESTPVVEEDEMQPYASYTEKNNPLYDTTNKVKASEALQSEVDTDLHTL

[2] = molecular target: T1, human CD200R1 on cells (HH, Jurkat-CD200R1, U937-CD200R1) (human); experiment: flow cytometry, U937-CD200R cells
[3] = molecular target: T1, human CD200R1 on cells (HH, Jurkat-CD200R1, U937-CD200R1) (human); experiment: cell-based or functional assay
[4] = molecular target: T1, human CD200R1 on cells (HH, Jurkat-CD200R1, U937-CD200R1) (human); experiment: flow cytometry, Jurkat-CD200R cells
[5] = molecular target: T2, human CD200R1 recombinant protein (human) (UniProt Q8TD46); experiment: ELISA of hybridoma clones on human CD200R1
T2 sequence (looked up): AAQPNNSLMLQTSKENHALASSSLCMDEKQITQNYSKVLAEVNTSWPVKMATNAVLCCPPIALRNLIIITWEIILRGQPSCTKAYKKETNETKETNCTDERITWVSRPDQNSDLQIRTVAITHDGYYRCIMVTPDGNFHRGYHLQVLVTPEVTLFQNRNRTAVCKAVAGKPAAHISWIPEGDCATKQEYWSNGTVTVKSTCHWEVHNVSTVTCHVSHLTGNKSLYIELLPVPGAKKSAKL

[6] = molecular target: T3, mouse CD200R1 protein (R&D systems, 2554-CD) (mouse, UniProt Q9ES57 26-238); experiment: ELISA on coated mouse CD200R1 protein
T3 construct: the same entry is used
T3 sequence (looked up): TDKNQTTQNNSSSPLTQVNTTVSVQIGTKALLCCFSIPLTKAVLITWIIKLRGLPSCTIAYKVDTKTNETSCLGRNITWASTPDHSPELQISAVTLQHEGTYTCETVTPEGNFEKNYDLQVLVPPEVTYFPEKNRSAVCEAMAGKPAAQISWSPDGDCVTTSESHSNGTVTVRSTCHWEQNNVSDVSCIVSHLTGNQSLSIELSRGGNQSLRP

LY3454738 (US 2020/0087395, I-4P, Eli Lilly) (antibody)
EC50 [1]: 82.7 nM | EC50 [2]: 152 nM | EC50 (nM), degree of signal transduction by the Dok2 protein, Jurkat-CD200R1 reporter cells [3]: > 10000 nM | IC50 (nM) of IL-6 suppression, LPS-treated U937-CD200R1 cells [3]: 1.72 nM | IC50 (nM) of TNF-α suppression, LPS-treated U937-CD200R1 cells [3]: 6.03 nM | IL-6 (pg/ml), LPS-treated U937-CD200R1 cells, log [Ab] (M) -7 [3]: 523 pg/ml | IL-6 (pg/ml), LPS-treated U937-CD200R1 cells, log [Ab] (M) -8 [3]: 1330 pg/ml | IL-6 (pg/ml), LPS-treated U937-CD200R1 cells, log [Ab] (M) -9 [3]: 2670 pg/ml | IL-6 (pg/ml), LPS-treated U937-CD200R1 cells, log [Ab] (M) -10 [3]: 3380 pg/ml | IL-6 (pg/ml), LPS-treated U937-CD200R1 cells, log [Ab] (M) -11 [3]: 3550 pg/ml | IL-6 (pg/ml), LPS-treated U937-CD200R1 cells, log [Ab] (M) -12 [3]: 4530 pg/ml | RLU (a.u.), phospho-Dok2 luminescence, Jurkat-CD200R1 reporter cells, antibody dose 0.05 nM [3]: 9260 a.u. | RLU (a.u.), phospho-Dok2 luminescence, Jurkat-CD200R1 reporter cells, antibody dose 0.10 nM [3]: 8400 a.u. | RLU (a.u.), phospho-Dok2 luminescence, Jurkat-CD200R1 reporter cells, antibody dose 0.20 nM [3]: 8000 a.u. | RLU (a.u.), phospho-Dok2 luminescence, Jurkat-CD200R1 reporter cells, antibody dose 0.39 nM [3]: 8960 a.u. | RLU (a.u.), phospho-Dok2 luminescence, Jurkat-CD200R1 reporter cells, antibody dose 0.78 nM [3]: 8900 a.u. | RLU (a.u.), phospho-Dok2 luminescence, Jurkat-CD200R1 reporter cells, antibody dose 1.56 nM [3]: 9100 a.u. | RLU (a.u.), phospho-Dok2 luminescence, Jurkat-CD200R1 reporter cells, antibody dose 3.13 nM [3]: 9470 a.u. | RLU (a.u.), phospho-Dok2 luminescence, Jurkat-CD200R1 reporter cells, antibody dose 6.25 nM [3]: 8930 a.u. | RLU (a.u.), phospho-Dok2 luminescence, Jurkat-CD200R1 reporter cells, antibody dose 12.5 nM [3]: 13000 a.u. | RLU (a.u.), phospho-Dok2 luminescence, Jurkat-CD200R1 reporter cells, antibody dose 25 nM [3]: 22700 a.u. | RLU (a.u.), phospho-Dok2 luminescence, Jurkat-CD200R1 reporter cells, antibody dose 50 nM [3]: 25600 a.u. | TNF-α (pg/ml), LPS-treated U937-CD200R1 cells, log [Ab] (M) -7 [3]: 472 pg/ml | TNF-α (pg/ml), LPS-treated U937-CD200R1 cells, log [Ab] (M) -8 [3]: 1040 pg/ml | TNF-α (pg/ml), LPS-treated U937-CD200R1 cells, log [Ab] (M) -9 [3]: 1480 pg/ml | TNF-α (pg/ml), LPS-treated U937-CD200R1 cells, log [Ab] (M) -10 [3]: 3760 pg/ml | TNF-α (pg/ml), LPS-treated U937-CD200R1 cells, log [Ab] (M) -11 [3]: 4950 pg/ml | TNF-α (pg/ml), LPS-treated U937-CD200R1 cells, log [Ab] (M) -12 [3]: 5490 pg/ml | EC50 [4]: 43.5 nM

B1: 1H10 (antibody, V domains shown)
VH: QVQLQQPGAELVKPGTSVKLSCKASGYNFTSYWINWVKLRPGQGLEWIGDINPGSGSTNYNEKFRSKATLTVGTSSSTAYMQLSSLASEDSALYYCAREDYYGSRFFYWGQGTLVTVSA
VL: DVVMTQTPLSLPVSLGDQASISCRSSQSLVHSNGNTYLHWYLQKPGQSPKLLIYKVSNRFSGVPDRFSGSGSGTDFTLKISRVEAEDLGVYFCSQSTHVTFGAGTKLELK
ELISA O.D. [5]: > 1.5 O.D.

B2: 5E9 (antibody, V domains shown)
VH: QVQLQQSGAELARPGASVKLSCKASGYTFTSYWMQWVKQRPGQGLEWIGAIYPGDGDTRYTQKFKGKATLTADKSSSTAYMQLRSLASEDSAVFYCARGGVTTLVPYFFDYWGQGATLTVSS
VL: DVLMTQTPLSLPVSLGDQASISCRSSQSIVHSNGNTYLEWYLQKPGQSPKLLIYKVSNRFSGVPDRFSGSGSGTDFTLKISRVEAEDLGVYYCFQGSHVPPTFGGGTKLEIK
ELISA O.D. [5]: > 1.5 O.D.

B3: 1F1 (antibody, V domains shown)
VH: QVQLQQPGAEFVKPGAPVKLSCKASGYTFTSYWMNWVKQRPGRGLEWIGRIDPADSEIHYNQKFKDKATLTVDKSSSTAYIQFSSLTSEDSAVYYCARSGGWLPGFAYWGQGTLVTVSA
VL: ENVLTQSPAIMSASPGEKVTMTCSASSSLIYMHWYQQKSSTSPKLWIYDTSKLASGVPGRFSGSGSGNSYSLTINSMEAEDVATYYCFQGSGYPLMYTFGGGTKLEIK
ELISA O.D. [5]: > 1.5 O.D.

B4: 6A8 (antibody, V domains shown)
VH: B3 VH with F11L, A54S, I58T, F83L
VL: B3 VL with I30S, H33L, N75S, A83G, Y93N
ELISA O.D. [5]: > 1.5 O.D.

B5: 3G4 (antibody, V domains shown)
VH: B3 VH with F11L, Y27F, F29L, A54S, I58T, F83L, S84T
VL: B3 VL with S26R, L29V, I30S, S40R, N75S, Y93D
ELISA O.D. [5]: > 1.5 O.D.

B6: 6C3 (antibody, V domains shown)
VH: QVQLQQPGAELVRPGASVKLSCKASAYTFTSYWMNWVKQRPEQGLEWIGRIDPYDSETHYNQKFKDKAILTVDKSSSTAYMQLSSLTSEDSAVYYCARVDGNHLFDYWGQGTTLTVSS
VL: DIKMTQSPSSMYASLGERVTITCKASQDINSYLSWFQQKPGKSPKTLIYRANRLVDGVPSRFSGSGSGQDYSLTISSLEYEDMGIYYCLQYDEFPYTFGGGTKLEIK
ELISA O.D. [5]: > 1.5 O.D.

B7: 6A10 (antibody, V domains shown)
VH: QLQQSGAELVRSGASVKLSCTASGFNIKDYYLHWIKQRPEQGLEWIGWIDPENGDTEYAPKFQGKATMTADTSSNTAYLQLISLTSEDAAVYYCFAGGSYWGQGTSVTVSS
VL: DIVMTQSPSSLSVSAGEKVTMSCKSSQSLLNSGNQKNYLAWYQQKPGQPPKLLIYGASTRESGVPDRFTGSGSGTDFTLTISSVQAEDLAVYYCQNDHSYPYTFGGGTKLEIK
ELISA O.D. [5]: > 1.5 O.D.

B8: P001015 (antibody, V domains shown)
VH: EVQLLESGGGLVQPGGSLRLSCAASGFTFSSYDMSWVRQVPGKGLEWVSWISHGGGSIYYADSVKGRFTISRDNSKNTLYLQMNSLRAEDTAVYYCARDAPAYSAPLFDYWGQGTLVTVSS
VL: QSVLTQPPSASGTPGQRVTISCSGSSSNIGNNAVNWYQQLPGTAPKLLIYYDSNRPSGVPDRFSGSKSGTSASLAISGLRSEDEADYYCAAWDDSLSGYVFGGGTKLTVL
binding result [6]: no binding (tested: up to 300 nM)
